Results published in paper PMC10501187.

Molecular target: GABARAP (UniProt O95166)
Assay: GST-GABARAP pull-down from cell lysate
Details: reference: wild type

Row | binding against the reference (sites S65) | binding against the reference (sites T54) | Substance
1 | weaker |  | ORP8 (from UniProt Q9BZF1) S65A
2 |  | weaker | ORP8 (from UniProt Q9BZF1) T54A
